± gives the uncertainty stated by the source.

This data set can be described thus: amyloid nucleation score (Sup35N fusion, yeast selection) (log enrichment); library NNK1; higher = more nucleation; inactive = no reads after selection. In short, it runs like this: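 Yeast lacking psi expressed peptides of 20 random codons fused to Sup35N, received 100 μM copper sulfate for 24 hours, and were then grown for 7 days at 30°C on medium lacking adenine and uracil. Illumina sequencing of input and output plasmid inserts provided the reads. Nucleation scores are DiMSum log enrichments of output over input, centred on the mode of non-aggregating sequences. Any sequence with under 100 input reads was excluded.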
For the substance CLFFLPQGLKRYE, the amyloid nucleation score is 0.015 ± 0.53.

Take CLFLWVTSVL: the amyloid nucleation score was found to be 1.19 ± 0.57.

CLFNEALINANHLNNINWML: the amyloid nucleation score is -0.361 ± 0.66.

Regarding CLFNQKGMFTSGCKVYLTLV, the amyloid nucleation score was -0.152 ± 0.27.

For the substance CLKFSIFDGE, the amyloid nucleation score is 0.127 ± 0.6.

As for CLKWTVNIDGFIPDARLPRS, the amyloid nucleation score was found to be 3.18 ± 0.18.

In turn, CLLFNGNKLVCSHILMRKNG had an amyloid nucleation score of 0.443 ± 0.23.

Substance CLLIVRISNSKFVVPPTVFA registered an amyloid nucleation score of 0.608 ± 0.49.

Regarding CLLVLLLGLRLPYRPRLVFV, the amyloid nucleation score is 0.463 ± 0.79.

CLNSHFGKNISNLFVCDLVC displayed an amyloid nucleation score of 0.484 ± 0.61.

For the substance CLNVCSLFRSTYRFKRVREC, the amyloid nucleation score worked out at 0.434 ± 0.37.

CLQDMFFTNELSFAGTLLIS displayed an amyloid nucleation score of 0.049 ± 0.34.

For CLRDNSRRGRNVQSL, the amyloid nucleation score was -1 ± 1.5.

As for CLSCSNICFFIHSVNWDVFS, the amyloid nucleation score is 5.27 ± 0.11.

Regarding CLSVLSCSVTSNYWLTS, the amyloid nucleation score amounted to 7.984 ± 0.056.

CLTGIGKLPVGSGPV had an amyloid nucleation score of 0.198 ± 0.77.

As to CLTLPYYSIYAVGESRMFEW, the amyloid nucleation score amounted to 0.003 ± 0.27.

Consider CLTMWIV, for which the amyloid nucleation score was -0.285 ± 0.68.

In turn, CLVELVYFCGLSVGQ came in with an amyloid nucleation score of -0.17 ± 0.85.

Substance CLVVTETANI came in with an amyloid nucleation score of -0.578 ± 0.69.

Substance CLWCDRTVASWAKVSASVRL gave an amyloid nucleation score of -0.073 ± 0.24.

CMAVWEKIENGVHLLHRSAD had an amyloid nucleation score of 2.76 ± 0.12.

The substance CMDKCVCERHPYL yielded an amyloid nucleation score of -0.345 ± 1.7.

Regarding CMLSCFSDRAWIMQRSVCAC, the amyloid nucleation score stood at 0.879 ± 0.65.

In turn, CMLVYCEVASVGVSFKLWWR had an amyloid nucleation score of 1.73 ± 0.39.

As for CMSSLLFD, the amyloid nucleation score is 0.921 ± 0.49.

The substance CMWPFTDYTIIKTSLYTWTN gave an amyloid nucleation score of -1.09 ± 0.53.

For CNDFCCT, the amyloid nucleation score entry is “inactive”.

On to CNMVHVVIERDGSGRRGCGL, for which the amyloid nucleation score was 5.38 ± 0.055.

CNMVLFRVKYY returned an amyloid nucleation score of 2.67 ± 0.1.

Regarding CPGLFVGLCPMAHMVACCHR, the amyloid nucleation score entry was “inactive”.

As to CPHALYKSLIIPGSMFYKVR, the amyloid nucleation score is -1.04 ± 1.7.

Substance CPRHVALGHLNYLGQDFDLK yielded an amyloid nucleation score of 0.326 ± 1.2.

CPSIILPFVYRNGSVTMVPF registered an amyloid nucleation score of 0.927 ± 0.2.

CPVRSRIVVRCLYFSHMRST registered an amyloid nucleation score of 0.263 ± 1.1.

With CQLNTASVSNNGGRVLGMYR, the amyloid nucleation score turned out to be 0.529 ± 0.79.

As for CRACRLRVIFNELMVGWVMF, the amyloid nucleation score entry was “inactive”.

Substance CRAGY returned an amyloid nucleation score of -0.534 ± 0.64.

The substance CRDAILIEVGNYRHLVLGPV gave an amyloid nucleation score of 0.677 ± 0.52.

The substance CREVAKFGKLSNRQSRGCAI had an amyloid nucleation score of -0.951 ± 1.4.

For CRLFYSWNVNMYRNMLLRWI, the amyloid nucleation score was -0.767 ± 0.33.

Regarding CRLIVISTTYIIKAQKCLIG, the amyloid nucleation score is -0.512 ± 0.33.

The substance CRLVVMVIVQLHGIDFELAL showed an amyloid nucleation score of 0.951 ± 0.54.

In turn, CRRIHFLVTMVTGSPLCLSG had an amyloid nucleation score of -0.627 ± 0.32.

Turning to CRSFYIIEIVKMGPNGRKGV, the amyloid nucleation score is -1 ± 0.78.

CSAFDVIN gave an amyloid nucleation score of -0.556 ± 1.4.

Substance CSAQTGVGSFPFGNIPVVSV gave an amyloid nucleation score of 0.789 ± 0.56.

As to CSAVS, the amyloid nucleation score is 0.241 ± 0.39.

In the case of CSCVCETEGRLSSSCYHHMP, the amyloid nucleation score was determined as 0.184 ± 0.38.

For the substance CSDNV, the amyloid nucleation score was 1.01 ± 0.49.

In turn, CSLILALPN had an amyloid nucleation score of 0.951 ± 0.6.

Substance CSLLSAPPVDSLWGTESRLI registered an amyloid nucleation score of -0.804 ± 0.73.

CSNDLECFCDFNCRL had an amyloid nucleation score of -0.033 ± 0.39.

CSNEK gave an amyloid nucleation score of 0.319 ± 0.97.

In turn, CSNRWCLKTRVERVMERGSV had an amyloid nucleation score of 0.218 ± 0.54.

As for CSQDYFIYYYPVLMLE, the amyloid nucleation score is -0.112 ± 0.46.

CSSKGCLVSESFLHLMTNLC displayed an amyloid nucleation score of 0.969 ± 0.42.

CSSWVMGLIFWECLKNMDKV showed an amyloid nucleation score of -1.39 ± 1.3.

In turn, CSTALLDEKLLFHGTYIMRD returned an amyloid nucleation score of 1.08 ± 0.57.

Substance CSVGASAIGNM came in with an amyloid nucleation score of 0.717 ± 0.59.

CSVTLVVRV returned an amyloid nucleation score of 0.676 ± 0.63.

Take CSYSLSRFVLIHDRIVNMVT: the amyloid nucleation score came out at 1.35 ± 0.4.

CTTNIPAKLHLNSVVRVVRA gave an amyloid nucleation score of -1.27 ± 2.7.

CVALGGLMAMLIASVIWENN gave an amyloid nucleation score of -0.354 ± 0.72.

CVALGLLGRCVLLVAGGGWA yielded an amyloid nucleation score of 0.503 ± 0.54.

CVANLPGSKVLVWNTKFK: the amyloid nucleation score came out at 5.38 ± 0.056.

Consider CVAWVSSNPRVGGDIRTWTE, for which the amyloid nucleation score is 0.021 ± 0.48.

Consider CVGRQLAGKAYLVLRWRECD, for which the amyloid nucleation score is -0.372 ± 1.4.

For the substance CVHAHTTHITSCRARPSTEA, the amyloid nucleation score was determined as 0.435 ± 0.28.

CVLPYCS gave an amyloid nucleation score of 0.297 ± 0.54.

For CVNQWILVPGRAF, the amyloid nucleation score result is “inactive”.

On to CVRRLRVLCTFLLVTLLYCI, for which the amyloid nucleation score amounted to 1.67 ± 0.29.

In turn, CVSEDDMLLDYDPVCKFVWW gave an amyloid nucleation score of 2.62 ± 0.15.

The substance CVSLCVHKDMIVIAPGTLTQ showed an amyloid nucleation score of 4.81 ± 0.064.

As for CVTCFTLGSVRGKRTASACW, the amyloid nucleation score is 0.322 ± 0.18.

For the substance CVWNYCAWFTVARNTTLFNN, the amyloid nucleation score was -0.508 ± 0.89.

Substance CWGFYL displayed an amyloid nucleation score of -0.976 ± 1.1.

Take CWLMGMSGPPFDRVWGVVIR: the amyloid nucleation score was -0.086 ± 1.2.

CWYLYRFSNTMMNRTTLPCG yielded an amyloid nucleation score of -0.169 ± 0.53.

CYAGFCNQRLPHYLLKLQVL came in with an amyloid nucleation score of -0.42 ± 1.7.

Turning to CYCFET, the amyloid nucleation score is -0.381 ± 0.71.

CYCWPTTKKIPFKSL displayed an amyloid nucleation score of -0.739 ± 1.9.

As for CYTLFAVVNMLLVFNWQCRD, the amyloid nucleation score is -0.34 ± 0.36.

Substance CYVSS registered an amyloid nucleation score of -0.548 ± 0.53.

On to DAFAGF, for which the amyloid nucleation score is 0.054 ± 0.59.

In turn, DAGGYLQEIARTPFTVARQQ came in with an amyloid nucleation score of 0.195 ± 0.35.

The substance DAPVTSSGSML showed an amyloid nucleation score of 0.008 ± 0.23.

On to DAQWAYYTRTYFWYVFSAVC, for which the amyloid nucleation score was found to be 0.27 ± 0.23.

DARLFDFYFANLVSSQGNCF: the amyloid nucleation score is 1.09 ± 0.56.

With DASSKIRPSIGRMQKHWY, the amyloid nucleation score is -0.513 ± 0.85.

With DASTEITGLAPGFSTTVGRM, the amyloid nucleation score was -0.536 ± 0.81.

DATVQTWGDVKSGLWWVCCP had an amyloid nucleation score of 5.62 ± 0.098.

Take DAVPSFTA: the amyloid nucleation score is -0.666 ± 0.69.

Consider DAVQLMSCCMTISGPTKNRA, for which the amyloid nucleation score amounted to 0.184 ± 0.56.

In turn, DAYTGCIDNSVANAG displayed an amyloid nucleation score of 0.481 ± 0.6.

The substance DCAKTANDSDVLFFDTSGAR yielded an amyloid nucleation score of 0.504 ± 0.4.

Consider DCLWPLVSMFLVPLRASKVR, for which the amyloid nucleation score was found to be 0.128 ± 0.44.

With DCQNYLSFVN, the amyloid nucleation score is -1.29 ± 2.4.

On to DCVKGHSECCRPSKLVKYWR, for which the amyloid nucleation score result is “inactive”.

As for DDHSLQPRLPLE, the amyloid nucleation score entry is “inactive”.

DDLPPRRNASFQWNKGFFRV: the amyloid nucleation score was -0.448 ± 1.7.

Substance DDPLNVTHKVRN came in with an amyloid nucleation score of 5.31 ± 0.069.

As to DDSSDTEVRLGYALAGIKVG, the amyloid nucleation score is -0.406 ± 0.34.

The substance DDYTGSEVNIITIV yielded an amyloid nucleation score of -1.43 ± 0.44.
